Measurements taken from patent US20190134143A1 (BIOCELLS BEIJING BIOTECH, published 2019).

Biological target: T1, PDZ1/2 domain
T1 construct: domain: PDZ1/2; also called PDZ1/2 protein
Assay: SPR, Biacore 3000; PDZ1/2 amine-coupled to the chip, peptide as analyte, 1:1 binding model
Procedure: The immobile phase molecule (ligand) was PDZ1/2 protein with a molecular weight of approximately 20 kD at a concentration of 2 mg/ml. The mobile phase molecule (analyte) was a polypeptide to be screened with a molecular weight of approximately 2 kD at a concentration of 10 mg/ml. The CMS chip was used for fixation using a Biacore 3000 instrument. The electrophoresis buffer was PBS plus 0.005% Tween 20. Fixation was carried out using an amino coupling method. The concentration of the ligand was 10 μg/ml. The fixation buffer was 10 mM sodium acetate, pH 4.0. Fixed amount was 1400 RU, which was fixed to flow cell 2. The used flow rate was 10 μl/ml and the ligand was loaded for 1 minute. 10 mM Gly at pH 2.0+2.5 was used as a regenerant. Regeneration was carried out at a flow rate of 30 μl/min. The loading time was 30 s.

T1 sequence (P78352 65-246): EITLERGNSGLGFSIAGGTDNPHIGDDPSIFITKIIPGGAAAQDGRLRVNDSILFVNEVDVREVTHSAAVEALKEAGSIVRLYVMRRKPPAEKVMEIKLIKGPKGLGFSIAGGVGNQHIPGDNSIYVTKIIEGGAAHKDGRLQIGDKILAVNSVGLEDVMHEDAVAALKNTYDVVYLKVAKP

B1: chimeric peptide YE-NA-1 (peptide)
peptide: YGRKKRRQRRRYEKLSSIESDV
Which Kd does the source give for B1 here?
Its Kd is 54.4 nM.
